Test results published in patent US20170145086A1 (VISTERRA, published 2017).
Values joined by “and” are separate entries in the source; they are usually repeats but may differ in a detail not shown here. Identical values can stand only once.

T1: HA-GCN4 hAPRIL (amino acid residues 105-250) (human, UniProt O75888 105-250)
T1 construct: Bought (R&D Systems); also called HA-tagged GCN4 human APRIL; HA-GCN4-huAPRIL; not shown: N-terminal HA tag; GCN4 isoleucine zipper oligomerization domain
T1 sequence: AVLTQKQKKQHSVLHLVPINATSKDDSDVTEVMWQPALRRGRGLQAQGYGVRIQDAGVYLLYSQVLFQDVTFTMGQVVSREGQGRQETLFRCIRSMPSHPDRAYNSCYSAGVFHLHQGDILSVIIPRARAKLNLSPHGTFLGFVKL

T2: HA-GCN4 mAPRIL (amino acid residues 96-241) (mouse, UniProt Q9D777 96-241, Assembles as a homotrimer through the GCN4 zipper; one protomer is given.)
T2 construct: Bought (R&D Systems); also called HA-tagged mouse APRIL (R&D Systems); recombinant mouse APRIL; not shown: N-terminal HA tag and GCN4 isoleucine-zipper trimerisation domain, with any linker, of the bought R&D Systems protein
T2 sequence: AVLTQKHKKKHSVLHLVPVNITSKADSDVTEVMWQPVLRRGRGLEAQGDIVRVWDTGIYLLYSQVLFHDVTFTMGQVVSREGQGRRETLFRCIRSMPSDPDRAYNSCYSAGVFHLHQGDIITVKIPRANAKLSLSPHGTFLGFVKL

B1: monoclonal antibody 2419-1406 (antibody, V domains shown)
VH: QVQLVQSGAEVKKPGASVKVSCKASGYTFTDYTIHWVRQATGQGLEWMGWIYPLRGSINYAQKFQGRVTMTADKSISTVYMELSSLRSEDTAVYFCARHGAYYSNAFDYWGQGTLVTVSS
VL: EIVMTQSPATLSVSPGERATLSCRASESVDNDGIRFLHWYQQKPGQAPRLLIYRASTRATGIPARFSGSGSRTEFTLTISSLQSEDFAVYYCQQSNKDPYTFGGGTKVEIK
B2: monoclonal antibody 4035-062 (antibody, IgG1, V domains shown)
VH: QVQLQESGPGLVKPSETLSLTCTVSGFSLTIYDVHWVRQPPGKGLEWIGVIWSDGSTDYNPSLKSRVTISKDTSKNQVSLKLSSVTAADTAVYYCARNWVDQAWFAYWGQGTLVTVSS
VL: DIQMTQSPSSLSASVGDRVTITCRASKNIYSYLAWYQQKPGKAPKLLVYNAKTLPEGVPSRFSGSGSGTDFTLTISSLQPEDFATYYCQHHYGTPLTFGQGTKLEIK
B3: monoclonal antibody 2621 (antibody, mouse IgG2, V domains shown)
VH: EVQLQQSGAELVRPGSSVKMSCKTSGYTFTSYGINWVKQRPGQGLEWIGYIYIGNGYAEYNERFKGKATLTSDTSSSTAYMQLSSLTSEDSAIYFCALYYPWFTYWGQGTLVTVSA
VL: DIQMTQSPASLSASVGDSVTITCRASENIYSYLAWYQQKQGKSPQLLVYNAKTLAEGVPSRFSGSGSGTQFSLKINSLQPEDFGNYYCQHHYDTPFTFGGGTKLEIK
B4: monoclonal antibody 2922 (antibody, mouse IgG2, V domains shown)
VH: QVQLHQSGPELVKPGASVKLSCKTSGYTFTSYDVFWVKQRPGQGLEWIGWIYPRDSSTKYNEKFKGKATLTVDTSSSTAYMELHSLTSEDSAVYFCAKEGYDYDKRGFDYWGQGTTLTVSS
VL: DIVLTQSPASLAVSLGQRAIISCKASQSVSFAGTNLMHWYQQRPGQQPKLLIYRASNLEPGVPTRFSGSGSRTDFTLNIHPVEEDDAATYYCQQSREYPWTFGGGTKLEIK
B5: monoclonal antibody 3125 (antibody, mouse IgG2, V domains shown)
VH: QVQLQQSGAELVRPGASVTLSCKASGYTFTDYEMHWVKQTPVHGLEWIGAIDPETGGTAYNQRFKGKAILTTDKSSITAYMELRSLTSEDSAVYYCTRWNDGDYWGQGTTLTVSS
VL: DVVMTQTPLSLSVTIGQPASISCKSSQSLLYSNGKTYLNWFQQRPGQSPKRLMYQVSKLDPGIPDRFSGSGSETDFTLKISRVEAEDLGLYYCLQGTYYPYTFGGGTKLEIK
B6: monoclonal antibody 3525 (antibody, mouse IgG2, V domains shown)
VH: QVQLQQSGAELVRPGASVKLSCKASGYTFTDHEMHWVRQTPVHGLEWIGVIDPDTGDTTYNQKFKGKATLTADKSSSTAYMDLRSLTSEDSAVFYCTRWTGGDYWGHGTTLTVSS
VL: B5 VL
B7: HuTACI-Fc-001 (Fc fusion, human, UniProt O14836 29-110, looked up)
chain: VAMRSCPEEQYWDPLLGTCMSCKTICNHQSQRTCAAFCRSLSCRKEQGKFYDHLLRDCISCASICGQHPKQCAYFCENKLRS
notes: range 29-110; also called human TACI-Fc; recombinant TACI-Fc; not shown: Fc portion of human IgG1 beginning at position E98 in CH1

Assays:
[1] = molecular target: T1, HA-GCN4 hAPRIL (amino acid residues …); assay: indirect ELISA on human APRIL
[2] = molecular target: T1, HA-GCN4 hAPRIL (amino acid residues …); assay: ELISA on trimeric (GCN4-stabilised) human APRIL
Text: APRIL trimer was stabilized by the N-terminal fusion of APRIL with an isoleucine zipper (GCN4) oligomerization domain Binding of APRIL to human TACI-Fc is shown for comparative purposes.

[3] = molecular target: T1, HA-GCN4 hAPRIL (amino acid residues …); assay: blocking ELISA; blocked: human APRIL binding to BCMA-Fc
Description: (§1) Recombinant TACI-Fc or BCMA-Fc was coated on 96 well plates in 0.1 M carbonate-bicarbonate buffer (pH 9.6), overnight at 4° C. Plates were washed three times with 1×PBST (PBS+0.025% Tween 20) followed by blocking with 1% BSA in 1×PBS, 37° C. for 1 hour. All subsequent wash steps were carried out with 1×PBST. To assess antibody blocking, either 15 ng/mL or 50 ng/mL HA-GCN4-huAPRIL was preincubated with varying antibody concentrations ranging from 0.03-30 μg/mL in binding buffer comprised of 1% BSA and 0.025% Tween-20 in 1×PBS. Preincubation was carried out at 30° C. for 1 hour with mixing. Antibody-APRIL premix with 50 ng/mL APRIL or 15 ng/mL APRIL was then added to TACI-Fc coated or BCMA-Fc coated plates, respectively, and incubated for an additional hour at 30° C. HA-tagged APRIL binding to either receptor was quantified using a goat polyclonal anti-HA tag-HRP antibody (Abcam) added at a 1:10000 dilution followed by colorimetric development using 100 μl/well of freshly prepared TMB substrate (KPL) carried out for up to 30 minutes at room temperature before quenching enzymatic reaction by the addition of 1N sulfuric acid. ELISA signal was quantified by absorbance at 450 nm. ELISA data was analyzed by non-linear regression. IC₅₀ values were calculated based on a 4 parameter fit of antibody titration curves. […] Non-blocking antibodies Aprly-1 or Aprly-5 (Enzo Biosciences) were used as negative controls. Mouse specific, blocking antibody aprily-1-1 (Adipogen) was generally used as a positive control in experiments using mouse APRIL (HA-GCN4-mAPRIL).
Assay is based on receptor blocking ELISA using recombinant human APRIL (R&D Systems) and either human TACI-Fc (FIG. 30A) or BCMA-Fc (FIG. 30B).

[4] = molecular target: T1, HA-GCN4 hAPRIL (amino acid residues …); assay: blocking ELISA; blocked: human APRIL binding to TACI-Fc
[5] = molecular target: T1, HA-GCN4 hAPRIL (amino acid residues …); assay: cell-based or functional assay
[6] = molecular target: T1, HA-GCN4 hAPRIL (amino acid residues …); assay: indirect ELISA on HA-GCN4 human APRIL, 3-parameter fit
Description: FIG. 5 depicts the binding of anti-APRIL antibodies to human APRIL. Relative binding of select anti-APRIL antibodies was measured by indirect ELISA. Select antibodies based on prior hybridoma screening were recombinantly produced (based on immunoglubin VH and VL gene sequencing) as described. HA-tagged GCN4 human APRIL R&D Systems was used as source of APRIL. Binding data was analyzed by non-linear regression using a three parameter fit.
(§2) Purified antibodies were further characterized for APRIL binding, APRIL species cross reactivity (human APRIL vs. mouse APRIL), and receptor blocking activity using TACI-Fc. For binding, an APRIL-based indirect ELISA was used to determine by first approximation the relative affinity of purified anti-APRIL antibodies to either human APRIL or mouse APRIL. ELISA method was as generally described above. […] Blocking and wash steps were completed as described. Binding of anti-APRIL antibodies to APRIL was quantified using an 8 point dilution of test antibody that spanned over a four log scale. Antibody binding to APRIL was detected using a rabbit anti-mouse IgG (H+L)-HRP conjugate (Jackson ImmunoResearch Laboratories). Antibody binding data was analyzed by non-linear regression analysis using a 3 parameter fit to determine max binding and apparent EC₅₀ values. […] Mouse specific antibody Apry-1-1 (Adipogen) was likewise used for quantification of antibody binding to mouse APRIL.

[7] = molecular target: T1, HA-GCN4 hAPRIL (amino acid residues …); assay: indirect ELISA on coated HA-GCN4 human APRIL; EC50 from non-linear regression
Text: as §2

[8] = molecular target: T1, HA-GCN4 hAPRIL (amino acid residues …); assay: blocking ELISA; blocked: human APRIL binding to human BCMA-Fc; parameters: concentration or dose not given beside the values
Description: as §1

[9] = molecular target: T1, HA-GCN4 hAPRIL (amino acid residues …); assay: blocking ELISA; blocked: human APRIL binding to human TACI-Fc; parameters: concentration or dose not given beside the values
Description: as §1

[10] = molecular target: T1, HA-GCN4 hAPRIL (amino acid residues …); assay: blocking ELISA, 4-parameter fit; blocked: human APRIL binding to human TACI-Fc
Description: as §1

[11] = molecular target: T1, HA-GCN4 hAPRIL (amino acid residues …); assay: blocking ELISA, 4-parameter fit; blocked: human APRIL binding to human BCMA-Fc
Description: as §1

[12] = molecular target: T1, HA-GCN4 hAPRIL (amino acid residues …); assay: competition ELISA: antibody titrated against human APRIL, read-out APRIL bound to coated human TACI-Fc
Description: Mouse specific antibody Apry-1-1 (Adipogen) was likewise used for quantification of antibody binding to mouse APRIL.
Recombinant TACI-Fc or BCMA-Fc was coated on 96 well plates in 0.1 M carbonate-bicarbonate buffer (pH 9.6), overnight at 4° C. Plates were washed three times with 1×PBST (PBS+0.025% Tween 20) followed by blocking with 1% BSA in 1×PBS, 37° C. for 1 hour. All subsequent wash steps were carried out with 1×PBST. To assess antibody blocking, either 15 ng/mL or 50 ng/mL HA-GCN4-huAPRIL was preincubated with varying antibody concentrations ranging from 0.03-30 μg/mL in binding buffer comprised of 1% BSA and 0.025% Tween-20 in 1×PBS. Preincubation was carried out at 30° C. for 1 hour with mixing. […] HA-tagged APRIL binding to either receptor was quantified using a goat polyclonal anti-HA tag-HRP antibody (Abcam) added at a 1:10000 dilution followed by colorimetric development using 100 μl/well of freshly prepared TMB substrate (KPL) carried out for up to 30 minutes at room temperature before quenching enzymatic reaction by the addition of 1N sulfuric acid. ELISA signal was quantified by absorbance at 450 nm. ELISA data was analyzed by non-linear regression. IC₅₀ values were calculated based on a 4 parameter fit of antibody titration curves. […]

[13] = molecular target: T2, HA-GCN4 mAPRIL (amino acid residues …); assay: blocking ELISA; blocked: mouse APRIL binding to human BCMA-Fc
Description: Recombinant TACI-Fc or BCMA-Fc was coated on 96 well plates in 0.1 M carbonate-bicarbonate buffer (pH 9.6), overnight at 4° C. Plates were washed three times with 1×PBST (PBS+0.025% Tween 20) followed by blocking with 1% BSA in 1×PBS, 37° C. for 1 hour. All subsequent wash steps were carried out with 1×PBST. To assess antibody blocking, either 15 ng/mL or 50 ng/mL HA-GCN4-huAPRIL was preincubated with varying antibody concentrations ranging from 0.03-30 μg/mL in binding buffer comprised of 1% BSA and 0.025% Tween-20 in 1×PBS. Preincubation was carried out at 30° C. for 1 hour with mixing. Antibody-APRIL premix with 50 ng/mL APRIL or 15 ng/mL APRIL was then added to TACI-Fc coated or BCMA-Fc coated plates, respectively, and incubated for an additional hour at 30° C. HA-tagged APRIL binding to either receptor was quantified using a goat polyclonal anti-HA tag-HRP antibody (Abcam) added at a 1:10000 dilution followed by colorimetric development using 100 μl/well of freshly prepared TMB substrate (KPL) carried out for up to 30 minutes at room temperature before quenching enzymatic reaction by the addition of 1N sulfuric acid. ELISA signal was quantified by absorbance at 450 nm. ELISA data was analyzed by non-linear regression. IC₅₀ values were calculated based on a 4 parameter fit of antibody titration curves. […]

Row | Binder | EC50 [2] [pM] | EC50 [6] | % Inhibition [8] [%] | % Inhibition [9] [%] | IC50 [10] [pM] | further results
1 | B1 | 38.4 |  |  |  |  | EC50 [1]: 3.34 pM; IC50 [3]: 110 pM; Relative Activity (normalised to 2419) [3]: 0.47; IC50 [4]: 240 pM; Relative Activity (normalised to 2419) [4]: 0.88
2 | B2 | 13.5 |  |  |  |  | IC50 (inhibition of APRIL-mediated BCMA NFκB signaling) [5]: ~380 pM; IC50 (inhibition of APRIL-mediated TACI NFκB signaling) [5]: ~1020 pM; EC50 [1]: 1.28 pM; IC50 [3]: 100 pM; Relative Activity (normalised to 2419) [3]: 0.41; IC50 [4]: 260 pM; Relative Activity (normalised to 2419) [4]: 0.93
3 | B3 |  | 0.0143 µg/mL and 0.097 nM | 0 | 79 | 1000 | EC50 [7]: < 200 pM
4 | B4 |  | 0.0713 µg/mL and 0.482 nM | 97 | 97 | 31600 | IC50 [11]: 22000 pM; IC50 [12]: > 10000 pM
5 | B5 |  | 0.281 µg/mL and 1.9 nM | < 10 | 52 | 113000 | EC50 [7]: > 1000 pM; IC50 [12]: > 10000 pM
6 | B6 |  | 0.0534 µg/mL and 0.361 nM | 48 | 86 | 4050 | IC50 (read off the curve) [13]: ~0.3 µg/mL; IC50 [11]: 850 pM
7 | B7 | 103 |  |  |  |  | 
